The test concerns the target T1, BoNT/F1 (UniProt A7GBG3 1-1278).
T1 sequence: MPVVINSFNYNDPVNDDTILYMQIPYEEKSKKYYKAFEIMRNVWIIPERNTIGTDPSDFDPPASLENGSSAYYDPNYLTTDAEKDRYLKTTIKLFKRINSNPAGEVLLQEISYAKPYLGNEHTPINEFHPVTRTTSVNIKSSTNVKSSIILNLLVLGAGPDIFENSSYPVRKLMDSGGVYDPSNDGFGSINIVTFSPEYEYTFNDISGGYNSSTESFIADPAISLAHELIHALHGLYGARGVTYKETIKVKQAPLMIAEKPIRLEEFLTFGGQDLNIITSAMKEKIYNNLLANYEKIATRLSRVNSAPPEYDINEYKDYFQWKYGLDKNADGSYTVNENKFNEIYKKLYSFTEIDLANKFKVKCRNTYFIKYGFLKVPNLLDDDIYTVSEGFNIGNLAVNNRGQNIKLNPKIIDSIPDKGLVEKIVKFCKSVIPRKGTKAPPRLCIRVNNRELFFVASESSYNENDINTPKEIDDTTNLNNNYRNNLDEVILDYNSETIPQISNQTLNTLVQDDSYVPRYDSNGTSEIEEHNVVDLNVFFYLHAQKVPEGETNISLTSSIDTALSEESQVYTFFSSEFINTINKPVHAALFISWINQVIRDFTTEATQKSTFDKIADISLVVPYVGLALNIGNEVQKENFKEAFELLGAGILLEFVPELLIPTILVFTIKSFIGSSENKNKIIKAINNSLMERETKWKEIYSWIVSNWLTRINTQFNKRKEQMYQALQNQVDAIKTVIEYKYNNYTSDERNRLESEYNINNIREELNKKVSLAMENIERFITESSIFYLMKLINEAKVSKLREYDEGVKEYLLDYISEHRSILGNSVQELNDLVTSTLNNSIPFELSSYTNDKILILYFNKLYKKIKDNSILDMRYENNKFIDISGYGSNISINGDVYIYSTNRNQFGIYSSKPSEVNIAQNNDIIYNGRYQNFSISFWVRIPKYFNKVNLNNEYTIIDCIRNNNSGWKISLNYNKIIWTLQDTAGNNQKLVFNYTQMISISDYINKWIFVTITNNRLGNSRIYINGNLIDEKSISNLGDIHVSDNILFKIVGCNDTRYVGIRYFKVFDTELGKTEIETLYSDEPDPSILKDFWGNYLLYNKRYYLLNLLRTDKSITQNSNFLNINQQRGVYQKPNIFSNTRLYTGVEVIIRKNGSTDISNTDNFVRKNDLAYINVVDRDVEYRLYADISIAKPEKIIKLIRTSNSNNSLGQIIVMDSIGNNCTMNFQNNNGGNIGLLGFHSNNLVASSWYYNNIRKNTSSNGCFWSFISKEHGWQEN
Briefly: KinExA, IgG.

As usually defined, the Kd is the constant that tells how readily two partners part at equilibrium. A high value points to a looser complex.

B1: Hu6F13.4 IgG (antibody, V domains shown)
VH: QVQLVQSGAEVKKPGASVKVSCKASGYSFTSYWMHWVRQAPGQGLEWIGFINPINGGIIYNEKFRFRATLTVDTSISTAYMELSRLRSDDTAVYYCARAGYYGSSRHFDVWGQGTLLTVSS
VL: ETTLTQSPSSLSASVGDRVTITCRASQGIRNYLAWYQQKPGKAPKLLIYDASNLETGVPSRFSGSGSGTDFTFTISSLQPEDFATYYCLQTSSTPWTFGQGTKVDIKR
On to B1, for which binding was characterised by a dissociation constant (Kd) of 173 pM.

The values are drawn from patent US20250230224A1 (University of California, published 2025).
